For this series, the system named is Escherichia coli TOP10. Kind of series: shrunken log2 fold change of peptide-encoding DNA abundance (4.5 h post-induction vs induction); higher = less antimicrobial activity (less host growth inhibition). To be noted: time post-induction: 4.5 h; library: site-saturation at positions 5, 18, 19, 20.

This is an account of results in the supplement of paper PMC9112550, “Optimization of the antimicrobial peptide Bac7 by deep mutational scanning” (BMC Biology, 2022).
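Also: peptides expressed intracellularly from a pBAD plasmid library in pooled LB shake-flask culture, induced with 0.3% L-arabinose, DNA abundance read by NGS, three biological replicates, DESeq2 with apeglm shrinkage.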

With RRIRPRPPRLPRPRPRPAAYPRP, the “shrunken log2 fold change” value stood at 0.0551.

As for RRIRKRPPRLPRPRPRPVRCPRP, the “shrunken log2 fold change” value is 0.746. As for RRIRPRPPRLPRPRPRPAEPPRP, the “shrunken log2 fold change” value was -0.0331.

Take RRIRFRPPRLPRPRPRPTFFPRP: the “shrunken log2 fold change” value was -0.169. With RRIRNRPPRLPRPRPRPNPGPRP the figure was 0.118. RRIRERPPRLPRPRPRPIRTPRP: the “shrunken log2 fold change” value was -0.577. Next, RRIRTRPPRLPRPRPRPYTNPRP: -0.0771; RRIRFRPPRLPRPRPRPLLAPRP: 0.176.

For the sequence RRIRVRPPRLPRPRPRPMFGPRP, the “shrunken log2 fold change” value worked out at 0.00478. In the case of RRIRDRPPRLPRPRPRPARMPRP, the “shrunken log2 fold change” value is 0.584. With RRIRWRPPRLPRPRPRPASAPRP the figure was 0.298; with RRIRWRPPRLPRPRPRPIQLPRP, -0.304. With RRIRGRPPRLPRPRPRPILYPRP the figure was 0.0934; with RRIRLRPPRLPRPRPRPVFFPRP, 0.0612. Take RRIRERPPRLPRPRPRPHGYPRP: the “shrunken log2 fold change” value is 0.0062.

Take RRIRWRPPRLPRPRPRPSLTPRP: the “shrunken log2 fold change” value worked out at 0.282.

On to RRIRNRPPRLPRPRPRPPRTPRP, for which the “shrunken log2 fold change” value is 0.59. For RRIRMRPPRLPRPRPRPQNTPRP, the “shrunken log2 fold change” value was found to be 0.0152.

RRIRERPPRLPRPRPRPRWDPRP: the “shrunken log2 fold change” value worked out at 0.143. With RRIRKRPPRLPRPRPRPANDPRP, the “shrunken log2 fold change” value amounted to 0.0931. Next, RRIRPRPPRLPRPRPRPLQSPRP: 0.0308. Turning to RRIRLRPPRLPRPRPRPRHKPRP, the “shrunken log2 fold change” value stood at 0.258.

With RRIRERPPRLPRPRPRPMCSPRP, the “shrunken log2 fold change” value was -0.00794.

With RRIRMRPPRLPRPRPRPCYVPRP, the “shrunken log2 fold change” value was -0.506. With RRIRMRPPRLPRPRPRPPKAPRP the figure was 1.02.

With RRIRIRPPRLPRPRPRPIKVPRP, the “shrunken log2 fold change” value is -0.398. For RRIRPRPPRLPRPRPRPHDKPRP, the “shrunken log2 fold change” value is -0.271. Next, RRIRERPPRLPRPRPRPAKFPRP: 0.112; RRIRLRPPRLPRPRPRPEMMPRP: 2.57; RRIRGRPPRLPRPRPRPFCGPRP: 0.224. Next, RRIRDRPPRLPRPRPRPYCDPRP: -0.181.

For the sequence RRIRVRPPRLPRPRPRPQRQPRP, the “shrunken log2 fold change” value is -0.207. Next, RRIRWRPPRLPRPRPRPAEDPRP: 0.711; RRIRLRPPRLPRPRPRPCIYPRP: -1.16; RRIRHRPPRLPRPRPRPDTWPRP: -1.13. As to RRIRMRPPRLPRPRPRPKFSPRP, the “shrunken log2 fold change” value amounted to 0.0925. In the case of RRIRMRPPRLPRPRPRPPLVPRP, the “shrunken log2 fold change” value is 0.36. Turning to RRIRIRPPRLPRPRPRPGQMPRP, the “shrunken log2 fold change” value was -0.0223.

In the case of RRIRLRPPRLPRPRPRPKYEPRP, the “shrunken log2 fold change” value is -0.0397. In the case of RRIRPRPPRLPRPRPRPAYSPRP, the “shrunken log2 fold change” value is -0.23. RRIRSRPPRLPRPRPRPWRMPRP: the “shrunken log2 fold change” value was -0.181. Turning to RRIRARPPRLPRPRPRPTYGPRP, the “shrunken log2 fold change” value was -0.0482. Next, RRIRKRPPRLPRPRPRPNIMPRP: -0.189; RRIRERPPRLPRPRPRPIGSPRP: -0.587. With RRIRARPPRLPRPRPRPNFQPRP the figure was -0.0343; with RRIRDRPPRLPRPRPRPSTKPRP, 0.116; with RRIRFRPPRLPRPRPRPMDIPRP, -0.0635. RRIRTRPPRLPRPRPRPELPPRP: the “shrunken log2 fold change” value came out at 0.499.

For the sequence RRIRHRPPRLPRPRPRPVCYPRP, the “shrunken log2 fold change” value was -0.663. With RRIRDRPPRLPRPRPRPCSCPRP the figure was 0.173.
